Experimental data: PMC8881592

Assay: time-resolved SAXS; rSslE 0.7 mg/ml in 20 mM citrate-phosphate buffer pH 4.4, 25 °C, stirred and circulated, data every 30 min over 11 h; COSMiCS decomposition into monomer and aggregate
Conditions: other: time-resolved SAXS

## recombinant SslE from E. coli W (rSslE; residues 67 to 1497)
  molar fraction of the aggregated species after 30 min: the aggregated species already represented 50% of the molar fraction
